Test results as given in US20200399394A1 (SURFACE ONCOLOGY, published 2020).

T1: human CD39 (ectonucleoside triphosphate diphosphohydrolase 1) (human, UniProt P49961 1-510)
T1 construct: Endogenous CD39 on MOLP-8 and SK-MEL-28 cells, primary human B cells and primary human monocytes; also called ENTPD1; ATPDase
T1 sequence: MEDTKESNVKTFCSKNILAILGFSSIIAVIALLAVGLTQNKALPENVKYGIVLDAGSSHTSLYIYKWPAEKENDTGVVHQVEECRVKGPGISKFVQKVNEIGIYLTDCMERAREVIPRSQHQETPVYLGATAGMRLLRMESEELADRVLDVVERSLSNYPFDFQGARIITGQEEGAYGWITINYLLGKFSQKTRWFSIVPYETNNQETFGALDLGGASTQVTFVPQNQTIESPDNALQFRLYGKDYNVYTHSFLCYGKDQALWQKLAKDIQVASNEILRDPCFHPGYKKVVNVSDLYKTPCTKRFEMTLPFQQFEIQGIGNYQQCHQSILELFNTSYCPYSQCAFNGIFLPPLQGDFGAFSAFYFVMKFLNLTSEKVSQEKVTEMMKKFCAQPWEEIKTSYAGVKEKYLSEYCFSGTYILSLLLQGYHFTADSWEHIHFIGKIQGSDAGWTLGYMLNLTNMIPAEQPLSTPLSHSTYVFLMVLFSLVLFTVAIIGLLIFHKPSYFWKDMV

B1: SRF365-A (antibody, human IgG4 S228P, kappa, V domains shown)
VH: QVQLVQSGAEVKKPGSSVKVSCKASGGTFSDKAISWVRQAPGQGLEWMGSILPIFGTANYAQKFQGRVTITADESTSTAYMELSSLRSEDTAVYYCAREAGYYRYRYFDLWGRGTLVTVSS
VL: EIVMTQSPATLSVSPGERATLSCRASQSVSSNLAWYQQKPGQAPRLLIYGASTRATGIPARFSGSGSGTEFTLTISSLQSEDFAVYYCQQHALWPLTFGGGTKVEIKR
B2: SRF370-A (antibody, human IgG4 S228P, kappa, V domains shown)
VH: QVQLVQSGAEVKKPGSSVKVSCKASGGTFSTYAIGWVRQAPGQGLEWMGGIIPAFGTANYAQKFQGRVTITADESTSTAYMELSSLRSEDTAVYYCARDPVRRSPFDIWGQGTMVTVSS
VL: EIVLTQSPATLSLSPGERATLSCRASQSVSSYLAWYQQKPGQAPRLLIYDSSNRATGIPARFSGSGSGTDFTLTISSLEPEDFAVYYCQQSFLWPRTFGGGTKVEIKR

Tests used:
[1] = molecular target: T1, human CD39 (ectonucleoside triphosphate …); assay: flow cytometry (MFI), AF488-labelled antibody on SK-MEL-28 cells, FIG. 4A
Procedure: (§1) The extent of binding to cells was determined and expressed as mean fluorescent intensity (MFI). Cells were washed with FACS Buffer (2 mM EDTA, 2% FBS) and pelleted by centrifugation. The cells were resuspended in FACS buffer containing a dose range of anti-CD39 or isotype control antibodies directly labelled with fluorophore Alexa Fluor 488 (AF488) and incubated for 30 minutes at room temperature. Cells were then washed twice with FACS buffer followed by fixation in 4% paraformaldehyde (PFA) and resuspended in FACS buffer and analyzed on a FACS Canto II analyzer (BD Biosciences).

[2] = molecular target: T1, human CD39 (ectonucleoside triphosphate …); assay: flow cytometry (MFI), AF488-labelled antibody, told under FIG. 4B (MOLP-8 cells; the sentence prints SK-MEL-28)
Procedure: as §1

| Binder | binding result [1] | binding result [2] |
| --- | --- | --- |
| B1 | binds | – |
| B2 | – | binds |
